In PMC5489123 (Journal of molecular biology, 2010):
Values belong to the molecule of their own block, whether it stands above or below them. Ends that are not written are not given here. * marks the point of attachment. Dansyl = CN(C)c1cccc2c(S(=O)(=O)*)cccc12

Experiments:
Tiam1 PDZ domain [1] = target: T1, Tiam1 PDZ domain (Homo sapiens, UniProt Q13009); assay: Fluorescence anisotropy binding assay of dansylated peptides
Tiam1 PDZ domain [2] = target: T1, Tiam1 PDZ domain; assay: NMR chemical shift titration of N-acetylated peptides; assay type: binding; conditions: Kd (Model)/Kd (peptide); both Kd by NMR titration
[3] = target: T2, Tiam1 PDZ domain (residues 841-930) (human, UniProt Q13009 841-930); assay: fluorescence polarisation
T2 sequence (Q13009 841-930): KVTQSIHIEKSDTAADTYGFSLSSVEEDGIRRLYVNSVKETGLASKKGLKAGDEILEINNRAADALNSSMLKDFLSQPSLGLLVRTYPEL

[4] = target: T2, Tiam1 PDZ domain (residues 841-930); assay: fluorescence polarisation; remark: listed apart in the source
[5] = target: T2, Tiam1 PDZ domain (residues 841-930); assay: NMR titration

T1 sequence (Q13009 841-930): as above

Kd [3]: 26.9 ± 0.9 µM
Molecule: Dansyl-TKQEEFYA [Syndecan1 C-terminal peptide (residues 303-310), N-terminally dansylated (dan-TKQEEFYA)]

Kd [4]: > 100 µM
Molecule: NKDKEYYV-OH (not fully specified (N-terminus)) [Neurexin-1 C-terminal peptide (residues 1470-1477), N-terminally dansylated]

Kd [3]: 16.8 ± 5.4 µM
Molecule: Dansyl-ENQKEYFF [Caspr4 C-terminal peptide (residues 1301-1308), N-terminally dansylated (dan-ENQKEYFF)]

Kd [5]: 112 ± 15 µM
Molecule: Ac-SSRKEYYA [Model Tiam1-binding peptide, N-terminally acetylated (Ac-SSRKEYYA)]

Kd [3]: 55.7 ± 3.6 µM
Molecule: Dansyl-TKQEEFYF [Syndecan1(A→F) peptide, dansylated (dan-TKQEEFYF)]

Continued, molecule first:

Molecule: Ac-NKDKEYYV [Neurexin1]
Kd (Tiam1 PDZ domain [1]): > 100 µM
Fold versus Model (Tiam1 PDZ domain [2]): 0.05

Molecule: Ac-NKDKEYYV [Neurexin-1 C-terminal peptide (residues 1470-1477), N-terminally acetylated (Ac-NKDKEYYV)]
Kd [5]: 2400 ± 250 µM

Molecule: Dansyl-SSRKEYYA [Model Tiam1-binding peptide, N-terminally dansylated]
Kd [4]: > 100 µM

Molecule: Dansyl-ENQKEYFA [Caspr4(F→A) peptide, dansylated (dan-ENQKEYFA)]
Kd [3]: 64.8 ± 5.9 µM
